Source: the NTF2 design screens of Basanta et al. (2020)

Assay: protease stability score; higher = more stable; yeast display proteolysis, trypsin and chymotrypsin;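 further: relative to predicted unfolded state with 0 unfolded-like and 1 meaning tenfold more protease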

Going from “TEDQEQAEEHFREEIHHWRTGDEDQLRRLMDPNTRIEIGDKVLHGREHAELFLRRYKGLKIDRFEIRHRDHQGDYVILHTHFRGEVNGRDFENTVQLVVLKVDGRWFLKYIRVE” to “DETETAKRFALEMLLHTLRTGDEEDKLRMLDPNARLVIGDKEFWGWKEFKKFVEKESRELRIQDSRIQHVELQGDKLHLDSVIIGQVNGVTVELKVEFVMNKIDGKWRVEEIIVR”, the protease stability score falls from 1.64 to 1.34.

Compared with “DEEEKLARHWMEVWHHAEHTGDFEEFNRLLDPHTRIEINFDGQRVELHGRHEYERFFRELGMEIRRIRLRDLHVVDGKWHIDGERDGEYDGKRIDSQIIIIYRVIDGRVKEIRKDDR”, “SEDEEISKKIIERILETMRTGDEDIMEHLVDPDAKFHDEDHHDHGREAFRWWSEFVKRIAGHDKVEIRQQHVKFQGNKVILHTIVIQGNKIYELIIVMEKFDGRWSISTVHIR” is higher in protease stability score: 0.816 for the first, 1.43 for the second.

Going from “DDHEEEVLRLLHTVLRIMWTGDEDELHRLADPNMKMWINGRKFHGRETAIETLKRMVNEIRIHEIHVKDFDVIGEYAHVDTRVRGTINGKETILNERIIVLVIDGRIKSIRIDLK” to “SEYEEWSERHLKHWEDARDTGDFDSETDLLDPHMRFQLIIGEKRVRFHGMEVLIEHVLRFKNATVREQKSHVEVIDGRIYIRLEGRYDVNGKDFDVEIIIISEKVNGRWILRYIEIRIH”, the protease stability score falls from 2.13 to 1.55.

Going from “TEEEEHSKTLAEELLRVLLTGDEDTLHELFDPHARFHYGDKLHIGREEVTKALREVYERIDHYEVKHLEIQGDKVHVDGEHHIGDKSIRVRVHAWIVNGVVKQYHEHSL” to “DEDFELAERFLEKWINVSRTGDEKKAHELVDPNVLINIGDKQIHGRERVVEWVSHIRIHHLEIHHFDVQGDKLIIDGRMDGTVNGRRVDHHIRIIISKVNGRWQTKTIDHE”, the protease stability score falls from 1.02 to 0.665.

Going from “SEEEELQRQLIEEFIRNRLTGDEDRLLELMDPNVRVRVGEKHAHGREEAIKLWHDHLHHWRIRHLTLRDYRVIDGKIHLHGEIHGEYNGKEHHTRTTIIIVHIDGRLRSIRIEID” to “SEDEKEDHELSRHVIETLKTGDWELLSELADPHVRLKVNGKTYIGRELFTETVRRLLDRFKNMTLKIEDIKTVDGRLEIHIFLIVGDKFFELIIIATKVDGRWFEEEMHVHHS”, the protease stability score falls from 2.12 to 0.915.

Going from “TEDHERIKKHIEILMHNLKTGNFEALVRMADPHVRFRLVQGNFHDETHGRDAWREVLERLGIDHIEIRDIRIHLYDGRLEMRIDGISRFNGREHKVELIIIIDKIDGRWRISEVELRIE” to “SEDEEMSHNIAKMWVDALMTGDEEVLHNLADPRVRLDINGVIVHGREEFTKTMEDKLRHMRIHHINIRDIDIQGDYVRVDVRSDIFVDGKRHHVTTTLIIFKVNGRWLLHEIVVR”, the protease stability score falls from 2.15 to 1.95.

First: DELEEELETAERISHEVLDTGDERIWSKLIDPNARLQIGDKEYHGREEVQRFFLEFGFKVSDIHSVKVQGDKIHVDTRSRVDGKEIELQLNSEKINGKWVLRHIHVWKR
Second: DEEERRTREFTEHVLHAEETGDFDSFVELADPNVRMRIGDKEIHGMEMVAKWLVHMRIKHFNLHRIEIQGEKVHIDGEIKGRFNGRDTETKVIFHIVVIDGRLHSQIIQIH
The protease stability score of the first is lower: 1.28 for the first, 1.54 for the second.

Going from “DEEEKAHEHMLRVLLHLERTGNEKALTEMADPNVRIDWNGKEDHGMEHLLRHLREIRIKNFELTDERHQGDKIELRGRLHGFIGDKHIILEVELVWRKVNGRWQLTSMHIK” to “DEEEEEARIAVDMFRRTVETGDEELLRKMIDPHVRMHVGDKDLHGRDFAVEIFHKLGVDHFEIRHQRLIGDKVELDIKVNVNGKEMETHSHLEKVNGRWVIRSLDVR”, the protease stability score falls from 1.45 to 1.25.

First: SEEQRLSEELFKRLVDYLLTGDWHSLKELLDPHVKVVVNGKEEIGRERMARHWLELHEKVPNMKSEFRLRYYEIQGDKAHYEVEIILHVNGRIRHIDIEVVMEKVDGRWMLHSITIR
Second: SETERKVREVLRLLDESLTTGDEREFRHLFDPNARLEIGDWEIHGMEIIDRLLHEIRIEVNDSKVRRIRIQGDKVEVHTRVDLKFNVDGVTERHDRDQHLLILKVNGRWLIKNFYIE
The protease stability score of the first is higher: 1.3 for the first, 1.1 for the second.

Going from “SEDEHLADHFLRLQRKHIDTGDEDSFDRMIDPRAKFDIDGQEFHGREWSEWVKKRFDHVHIERIITRKFHVVDGRAEFHVDYDGRLNYNGVEVRVTLKQITIIEKIDGRWYVRSESIK” to “DEIEKESERVMEKYFEDFITGDWETMWRQVDPHVKFRIGDKHFHGREQATRVYKEFLDELGVKVRRIHDFEFTLFDGRAYVHLDSTLRVNGRDHRLHITIIVEKINGRWRLHEFELRLH”, the protease stability score falls from 0.656 to 0.367.

Compared with “DEEERDMKIAEEVFLHAMHTGDWKKFFELMDPHVKVHIDGVDLHGREEASKIWKERIDKVKNMTFDVKHSHRQGNKVTLHTELHVNGKTTHLIVVLSKVNGRWTLEEMSEE”, “DEQSRVSEEVIKIWLESVNTGDEKSLSELIDPNVKIHVNGKKMHGWRDAEDHARRIDHMHVEDFKIESIQTQGDFAILHGRLVYSRIVNGVELHSDEHVEMVILKYNGRWSIEEVRVR” is higher in protease stability score: 1.21 for the first, 1.27 for the second.

Going from “SEDSEDAKKVVEISIHTVVTGDEHTNTRLFDPHVRIEIGDKEIHGREKFVHIIRHWRMEAHVEVDEVKRQGDKVRVDGHVRIILDINGRKIDIESQVDVNILKVNGRWLIESEHIH” to “SEDEEEAERFLRMFFELIRTGDERTIERLLDPHVRIDIDGRDIHGRERAQEHVQHWYRHIRIEDDQIKEFHIQGNKVEHHGRRRGSFNGVTYEVTVHETVLKVDGVWYMKEVHVR”, the protease stability score falls from 1.08 to 0.891.

Going from “SEEEEIRLDLARLWLELVLTGDEQVYEKLADPNVRFDVNGRELHGRETWIDLLLQFKNVVKRIELKRLDVQGDFVVLDTRLRLVVNGRTETYETWIIFYVVNGRIKEVEIRTT” to “DEEEEINKKIVEDLFRALITGDEERQLKNMDPNTKIRTNVNGQDYIFHGRDLWVTLWNRFKNLRVEIESVHRQGNKIHFDTRLLFNGRIFQYHIVVISVNGQTKELKEHDE”, the protease stability score falls from 1.31 to 1.24.

Going from “DEDFENASRTLKKFYEDEATGDEDALSELVDPNTRLDINGQQVHGWENFRKWIHHLGIKHVILHIRRYDSQGDKLHLETEEVHDFNGVEERRDTRLLLLKVDGKWIFKEIEVK” to “SEEEHEIRRAVEHWYRSLHTGDEEESIDLVDPHTITIVNGREVHGRHLMYEIMRKFKNAKIEFEITHHEVVNGRADVNMRLTVHIGDKTYETIIHLHTEKVNGRWTVRHWEVK”, the protease stability score rises from 1.41 to 1.46.

Compared with “DEEIEMLTKLAELFIRLWLTGNEDILESMADPRVRLEINGREHHGRDIVRKIFEHDRHHMRLESIQLHDRRVYNGRADLHGTQYGEINGKRETYTVRLILVIINGRIETVKVIVE”, “SEWDELLRHILEVMINSVLTGDEHRQLWMADPHAKVHFENHEVHGRDHWSHLVREHINEIRMRIHLHDEKTVGNFAVSDVRYREEVNGVELSTEIELILIVVDGRLKQIEFRYH” is lower in protease stability score: 1.14 for the first, -0.029 for the second.

Compared with “DEHEELIMEFLRRLLEWHLTGDEEYISRNFDPNTQFDILIGDKRYHIHGREEIHEWLHEFLRELRVHIIVHEMRAQGDKAHNRGTLNLTYGDKRRTVDVHIFIVVVNGRYKKIIVQVK”, “DEERQESEEALRHSMELWATGDFESLSRNVDPNVRVEIGDKTFHGWEIAHELFHKIKNLTVHLEDHEIQGEKVTIHGVLNFNGKREHVRLYSKKVNGRWILEKVQVG” is higher in protease stability score: 1.62 for the first, 2.17 for the second.

First: DERRKLEEDILELMLRVFETGDFDTFIKFADPNTRSDVNGRQYHGREWLAEMWKITLEELGADHFELTSYDVFNGRVHLRIRVHVGDKQRSMTIEIQVINGKVQSIRIDIE
Second: DELHNLLEHALKIVIELWRTGDWRLIDKMLDPNTLLNFNGKNIHGREEIDRLRKELGIEFFAIEDQDYRRMHIQGDKIELDGDSDIIINGQRRRTHVHLHLEKINGRWVDRRIIFL
The protease stability score of the first is higher: 1.4 for the first, 0.913 for the second.

First: SEEEKHVIKMAEILLKSVLTGDWDKIKKMLDPNVKFHFHAENRHEEDHGMERVMDWMIKVRERFDVLEIEVTNSDVYGDKAVVDGRLINIIGDKRIETRVIIIIVVVDGRIHSIYFVIK
Second: SEEDELNHRISHLLTRMRRTGDEDTWHRLADPNMRLEINGVISHGREEALRILSEVDDILGIDRFSVHLDRYTWDGNYIHNDMTFEINGRDLRVHVDSLVINGRMHHERVRVE
The protease stability score of the first is higher: 2.54 for the first, -0.516 for the second.

Going from “DERDEVLEDTARRVLEWLTTGNWEELAKYADPNVKNDINGRIDHGREEMSRRIREELHKVKNLKFNITYFDIIGDKVHFWGTLHYDGRTMETHIHIEVVDGRLHHMQFEIK” to “SEEEEEAHKFIEDWRTALETGDFDSIKELIDPNVRLHIGDKDLVGREEWVRELRRRKERYKGLRLKVHIKHVDIFDGRLIVDAEIRIDIGDKHLHYRVHIFVHKVNGRWQMKRYEEE”, the protease stability score rises from 0.983 to 2.57.

Going from “DEWHEYNEKLFELWEKANKTGDERLLRLLIDPHARLHFNGKHFHGREEVARLMTELRVDRFEIKRMEIQGEKLTVEGREDVTQGDFRFESNVNIIFLKINGRWSLERQHSE” to “SEEEELLEHAYRHLIHTILTGDERLIEEMLDPNVRISIGEYHSHGREEAIRDVHELGIKHSERLHLTHVDSQGNKVRLHVEFVTNVNGVRRHVTVTWHIIKVNGKWYIESWDHQ”, the protease stability score rises from 0.944 to 1.83.

Going from “DEEKELNENLAKIILHMFHTGDEKRWSKMADPHMRANINGVTIHGRELVIKEFLHWRHRLGVKHEEIHHIDIQGDKVRTDSHVDIDGQRVNIILRVVVVNGRLHSEEVEIR” to “SEDEEEAKRSIELEMRSWRTGDEDAWLRLADPDVKFVIDGREFHGREALEFLQNRFDHIEMREHEVRHVDLQGDKIHMDTRLRMILIYNGVEIEKETRTEIVVKKIDGRWILHQVEYR”, the protease stability score falls from 0.787 to 0.724.

First: DEKTEISEFALELFKESYDTGDEHTINRLADPHYRVVIGDKDLIGMEWLEHVIRHHKERVDHYRDVTVKDIKVIGNKVIADIRSHVHVDGQERDLDIDLVVFKINGRWRIKMIKID
Second: DELETYSRRMFQLLLHIMETGDEEKWDHLADPNARLDIDGREFHGREIVSEVHSQIRSELGVDHHQITHFRLHTFDGKVEVEMEVIDKFDGRDVRSRIHIIVIKINGKWFLHEMSYDHG
The protease stability score of the first is lower: 1.15 for the first, 1.35 for the second.

Compared with “DEEKRRSHELADLWWEMLETGDWDRTKNLMDPDTRLHIGDKEDHGMENFYRFRKDFESQFPNMRIELKSHRVQGDFFEIKGKINFNGRLVEAEIRVKIVDGRLKEIHVHIK”, “DELDHDIERNLRLWLEALYTGDFEFLLRLVDPNVRMHINGVNDHGWKFAEFLIRRADHSEMEIRIRHVHEVNGVLRMDGEVKFDIRQGDKSREKHIEVHMVLMKVNGQWFVKSFEFK” is higher in protease stability score: 0.821 for the first, 1.47 for the second.

Compared with “SEEDEMVRYVFELYAIAIETGDEDTLRNMFDPNAKIKFDGVDIHGRENIKRILREWRSSVHHWQIREKEIYGDKISLNVFQDLRFTIDGQFRRITTEVKVEIIKINGKWFFTHLEYI”, “SEEDKWAEIMARLMSYLNHTGDEENFDRLADPDVRMDINGREVHGRETFNRYLRHIRIRFHDLISRDSTEVNGVLIIHGESDITIEYDGVRLRDHPKSVFYVLKINGRWRIKSISFH” is higher in protease stability score: 0.995 for the first, 1.41 for the second.

First: DEDTHMMELFNKTLHHVERTGDETLLNKLMDPHARLEIGDKHNHGRENVERERRRLLKELGHTQVEFRIREIRFQGDKLTIHGHTLVNGVHFDIRLLVWKVDGRWHMESFHLE
Second: DEEEHRIIRFIKKVLDDIVTGDWDSFRRNLDPNAKLSAEFEGRREEHVGRDIATRWMREIRIHDMEIKDMRLIDGVNIVKGHFDGRINGQRIRTDTEIWLYVVDGRITSVTIHII
The protease stability score of the first is higher: 1.46 for the first, 0.776 for the second.
